# Publication PMC5339707, “ACCORD: an assessment tool to determine the orientation of homodimeric coiled-coils” (Scientific Reports, 2017)
# Where “and” joins values, the source holds several entries; their conditions need not be identical. Equal entries are not always repeated. Where two headings read alike, the source gives them in different places.
# B1: His6-SspB-ROCK1 (535-709) fusion protein (other, E. coli | H. sapiens, UniProt P0AFZ3 1-165, looked up)
# chain: MDLSQLTPRRPYLLRAFYEWLLDNQLTPHLVVDVTLPGVQVPMEYARDGQIVLNIAPRAVGNLELANDEVRFNARFGGIPRQVSVPLAAVLAIYARENGAGTMFEPEAAYDEDTSIMNDEEASADNETVMSVIDGDKPDHDDDTHPDDEPPQPPRGGRPALRVVKLANEKLSQLQKQLEEANDLLRTESDTAVRLRKSHTEMSKSISQLESLNRELQERNRILENSKSQTDKDYYQLQAILEAERRDRGHDSEMIGDLQARITSLQEEVKHLKHNLEKVEGERKEAQDMLNHSEKEKNNLEIDLNYKLKSLQQRLEQEVNEHKVTKARLTDKHQSIEEAK
# notes: Stringent starvation protein B (SspB), E. coli, full length, residues 1-165 (M1-K165), amplified from genomic DNA; Rho-associated coiled-coil containing protein kinase 1 (ROCK1), human, coiled-coil domain, residues 535-709 (L535-K709); CCD ligated behind SspB in the His6-SspB vector (BamHI at the 5' end); vector holds TEV and thrombin cleavage sites; source: E. coli BL21(DE3), purified (HisTrap, …)
# B2: His6-SspB-Ndel1 (8-99) fusion protein (other, E. coli | R. norvegicus, UniProt P0AFZ3 1-165, looked up)
# chain: MDLSQLTPRRPYLLRAFYEWLLDNQLTPHLVVDVTLPGVQVPMEYARDGQIVLNIAPRAVGNLELANDEVRFNARFGGIPRQVSVPLAAVLAIYARENGAGTMFEPEAAYDEDTSIMNDEEASADNETVMSVIDGDKPDHDDDTHPDDEPPQPPRGGRPALRVVKDFSSLKEETAYWKELSLKYKQSFQEARDELVEFQEGSRELEAELEAQLVQAEQRNRDLQADNQRLKYEVEALKEKLEHQYAQSYKQVSVLED
# notes: Stringent starvation protein B (SspB), E. coli, full length, residues 1-165 (M1-K165), amplified from genomic DNA; Major peak a dimer; source: E. coli BL21(DE3), purified (HisTrap, Superdex 200); not shown: His6, N-terminal, kept
# B3: MBP-MDV1 (231-300) fusion protein (domain or fragment, S. cerevisiae, UniProt P47025 231-300, looked up)
# chain: QTLVNSLEFLNIQKNSTLSEIRDIEVEVENLRQKKEKLLGKIANIEQNQLLLEDNLKQIDDRLDFLEEYG
# notes: Mitochondrial division protein 1 (MDV1), S. cerevisiae, coiled-coil domain, residues 231-300; Modified pMAL vector; the whole chain is in PDB 5JST; source: E. coli BL21(DE3), purified (amylose resin, Q-FF, Superdex 200)
# B4: His6-SspB-Atg16 (58-130) fusion protein (other, E. coli | S. cerevisiae, UniProt P0AFZ3 1-165, looked up)
# chain: MDLSQLTPRRPYLLRAFYEWLLDNQLTPHLVVDVTLPGVQVPMEYARDGQIVLNIAPRAVGNLELANDEVRFNARFGGIPRQVSVPLAAVLAIYARENGAGTMFEPEAAYDEDTSIMNDEEASADNETVMSVIDGDKPDHDDDTHPDDEPPQPPRGGRPALRVVKVSHDDALLNTLAILQKELKSKEQEIRRLKEVIALKNKNTERLNDELISGTIENNVLQQKLSDLKKEHSQLVAR
# notes: Stringent starvation protein B (SspB), E. coli, full length, residues 1-165 (M1-K165), amplified from genomic DNA; Autophagy protein 16 (Atg16), S. cerevisiae, coiled-coil domain, residues 58-130 (V58-R130); source: E. coli BL21(DE3), purified (HisTrap, Superdex 200); not shown: His6, N-terminal, kept
# B5: His6-SspB-MDV1 (231-300) fusion protein (other, E. coli | S. cerevisiae, UniProt P0AFZ3 1-165, looked up)
# chain: MDLSQLTPRRPYLLRAFYEWLLDNQLTPHLVVDVTLPGVQVPMEYARDGQIVLNIAPRAVGNLELANDEVRFNARFGGIPRQVSVPLAAVLAIYARENGAGTMFEPEAAYDEDTSIMNDEEASADNETVMSVIDGDKPDHDDDTHPDDEPPQPPRGGRPALRVVKQTLVNSLEFLNIQKNSTLSEIRDIEVEVENLRQKKEKLLGKIANIEQNQLLLEDNLKQIDDRLDFLEEYG
# notes: Stringent starvation protein B (SspB), E. coli, full length, residues 1-165 (M1-K165), amplified from genomic DNA; Mitochondrial division protein 1 (MDV1), S. cerevisiae, coiled-coil domain, residues 231-300 (Q231-G300); Seen as a tetramer (main fraction) and a dimer (significant proportion); source: E. coli BL21(DE3), purified (HisTrap, Superdex 200); not shown: His6, N-terminal, kept
# B6: His6-SspB-LRRFIP1 (162-249) fusion protein (other, E. coli | H. sapiens, UniProt P0AFZ3 1-165, looked up)
# chain: MDLSQLTPRRPYLLRAFYEWLLDNQLTPHLVVDVTLPGVQVPMEYARDGQIVLNIAPRAVGNLELANDEVRFNARFGGIPRQVSVPLAAVLAIYARENGAGTMFEPEAAYDEDTSIMNDEEASADNETVMSVIDGDKPDHDDDTHPDDEPPQPPRGGRPALRVVKDSLAEVEEKYKKAMVSNAQLDNEKTNFMYQVDTLKDMLLELEEQLAESRRQYEEKNKEFEREKHAHSILQFQFAEVKEALKQREEMLE
# notes: Stringent starvation protein B (SspB), E. coli, full length, residues 1-165 (M1-K165), amplified from genomic DNA; CCD ligated behind SspB in the His6-SspB vector (BamHI at the 5' end); vector holds TEV and thrombin cleavage sites; source: E. coli BL21(DE3), purified (HisTrap, Superdex 200); not shown: His6, N-terminal, kept
# B7: His6-SspB-MYO10 (883-933) fusion protein (other, E. coli | human, UniProt P0AFZ3 1-165, looked up)
# chain: MDLSQLTPRRPYLLRAFYEWLLDNQLTPHLVVDVTLPGVQVPMEYARDGQIVLNIAPRAVGNLELANDEVRFNARFGGIPRQVSVPLAAVLAIYARENGAGTMFEPEAAYDEDTSIMNDEEASADNETVMSVIDGDKPDHDDDTHPDDEPPQPPRGGRPALRVVKENKQVEEILRLEKEIEDLQRMKEQQELSLTEASLQKLQERRDQELRRLEEE
# notes: Stringent starvation protein B (SspB), E. coli, full length, residues 1-165 (M1-K165), amplified from genomic DNA; also called human MYO10 CC; source: E. coli BL21(DE3), purified (HisTrap, Superdex 200)
# B8: His6-SspB-SCOC (78-159) fusion protein (other, E. coli | H. sapiens, UniProt P0AFZ3 1-165, looked up)
# chain: MDLSQLTPRRPYLLRAFYEWLLDNQLTPHLVVDVTLPGVQVPMEYARDGQIVLNIAPRAVGNLELANDEVRFNARFGGIPRQVSVPLAAVLAIYARENGAGTMFEPEAAYDEDTSIMNDEEASADNETVMSVIDGDKPDHDDDTHPDDEPPQPPRGGRPALRVVKMMNADMDAVDAENQVELEEKTRLINQVLELQHTLEDLSARVDAVKEENLKLKSENQVLGQYIENLMSASSVFQTTDTKSKRK
# notes: Stringent starvation protein B (SspB), E. coli, full length, residues 1-165 (M1-K165), amplified from genomic DNA; Short coiled-coil protein (SCOC), human, coiled-coil domain, residues 78-159 (M78-K159); CCD ligated behind SspB in the His6-SspB vector (BamHI at the 5' end); vector holds TEV and thrombin cleavage sites; source: E. coli BL21(DE3), purified (HisTrap, Superdex 200); not shown: His6, …
# B9: His6-SspB-APC (2-55) fusion protein (other, E. coli | H. sapiens, UniProt P0AFZ3 1-165, looked up)
# chain: MDLSQLTPRRPYLLRAFYEWLLDNQLTPHLVVDVTLPGVQVPMEYARDGQIVLNIAPRAVGNLELANDEVRFNARFGGIPRQVSVPLAAVLAIYARENGAGTMFEPEAAYDEDTSIMNDEEASADNETVMSVIDGDKPDHDDDTHPDDEPPQPPRGGRPALRVVKAAASYDQLLKQVEALKMENSNLRQELEDNSNHLTKLETEASNMKEVLKQLQGSI
# notes: Stringent starvation protein B (SspB), E. coli, full length, residues 1-165 (M1-K165), amplified from genomic DNA; Adenomatous polyposis coli protein (APC), human, coiled-coil domain, residues 2-55 (A2-I55); CCD ligated behind SspB in the His6-SspB vector (BamHI at the 5' end); vector holds TEV and thrombin cleavage sites; source: E. coli BL21(DE3), purified (HisTrap, Superdex 200); not shown: …
# B10: His6-SspB-NDP52 (141-334) fusion protein (other, E. coli | H. sapiens, UniProt P0AFZ3 1-165, looked up)
# chain: MDLSQLTPRRPYLLRAFYEWLLDNQLTPHLVVDVTLPGVQVPMEYARDGQIVLNIAPRAVGNLELANDEVRFNARFGGIPRQVSVPLAAVLAIYARENGAGTMFEPEAAYDEDTSIMNDEEASADNETVMSVIDGDKPDHDDDTHPDDEPPQPPRGGRPALRVVKEVEEIEQHNKELCKENQELKDSCISLQKQNSDMQAELQKKQEELETLQSINKKLELKVKEQKDYWETELLQLKEQNQKMSSENEKMGIRVDQLQAQLSTQEKEMEKLVQGDQDKTEQLEQLKKENDHLFLSLTEQRKDQKKLEQTVEQMKQNETTAMKKQQELMDENFDLSKRLSENEIICNALQRQKERLEGE
# notes: Stringent starvation protein B (SspB), E. coli, full length, residues 1-165 (M1-K165), amplified from genomic DNA; source: E. coli BL21(DE3), purified (HisTrap, Superdex 200); not shown: His6, N-terminal, kept
# B11: MBP-NDP52 (197-270) fusion protein (domain or fragment, H. sapiens, UniProt Q13137 197-270, looked up)
# chain: KVKEQKDYWETELLQLKEQNQKMSSENEKMGIRVDQLQAQLSTQEKEMEKLVQGDQDKTEQLEQLKKENDHLFL
# notes: Modified pMAL vector; source: E. coli BL21(DE3), purified (amylose resin, Q-FF, Superdex 200)
# B12: His6-SspB-TRIM25 (194-356) fusion protein (other, E. coli | H. sapiens, UniProt P0AFZ3 1-165, looked up)
# chain: MDLSQLTPRRPYLLRAFYEWLLDNQLTPHLVVDVTLPGVQVPMEYARDGQIVLNIAPRAVGNLELANDEVRFNARFGGIPRQVSVPLAAVLAIYARENGAGTMFEPEAAYDEDTSIMNDEEASADNETVMSVIDGDKPDHDDDTHPDDEPPQPPRGGRPALRVVKASADLEATLRHKLTVMYSQINGASRALDDVRNRQQDVRMTANRKVEQLQQEYTEMKALLDASETTSTRKIKEEEKRVNSKFDTIYQILLKKKSEIQTLKEEIEQSLTKRDEFEFLEKASKLRGISTKPVYIPEVELNHKLIKGIHQSTIDLKNELKQCIGRLQ
# notes: as for B10
# How the values were obtained:
# [1] = target: His6-SspB-Mfn1 (660-735) fusion protein (E. coli | M. musculus) (UniProt P0AFZ3); experiment: SEC-MALS; self-association of His6-SspB-CCD fusion proteins (ACCORD); Superdex 200 10/300 GL, 50 mM Tris pH 8.0, 0.5 mM TCEP, 200 mM NaCl; sample 3-5 mg/ml, 0.5 ml
# [2] = target: His6-SspB-TPM1 (1-98) fusion protein (E. coli | G. gallus) (UniProt P0AFZ3); experiment: as above
# [3] = target: the molecule itself; experiment: as above
# [4] = target: the molecule itself; experiment: crystal structure; MBP-MDV1 fusion protein, hanging drop, 295 K, 100 mM sodium acetate pH 4.5, 25% PEG 3350, 100 mM CaCl2, 1.3-1.7 M sodium formate; molecular replacement
# [5] = target: the molecule itself; experiment: SEC-MALS; self-association of His6-SspB-CCD fusion proteins (ACCORD); Superdex 200 10/300 GL, 50 mM Tris pH 8.0, 0.5 mM TCEP, 200 mM NaCl; sample 3-5 mg/ml, 0.5 ml; remark: listed apart in the source
# [6] = target: the molecule itself; experiment: SAXS; MBP fusion proteins in 50 mM Tris pH 8.0, 0.5 mM TCEP, 100 mM NaCl; MBP-NDP52 2.6 mg/ml, MBP-MDV1 9.8 mg/ml; ab initio molecular envelope
Molecule,stoichiometry N [3],other results
His6-SspB-Mfn1 (660-735) fusion protein (from UniProt P0AFZ3 1-165; Q811U4 660-735),–,stoichiometry N [1]: 4
His6-SspB-TPM1 (1-98) fusion protein (from UniProt P0AFZ3 1-165; P04268 1-98),–,stoichiometry N [2]: 2
B1,2,–
B2,2,–
B3,–,binding result [4]: binds
B4,2,–
B5,4 and 2,–
B6,2,–
B7,–,stoichiometry N [5]: 2
B8,2,–
B9,2,–
B10,2,–
B11,–,binding result [6]: binds
B12,4,–
